Substitutions are numbered along the chain they refer to.
Key:
[1] = biological target: T1, isoform 3 (alkaline phosphatase, intestinal (ALPLI)) (Homo sapiens, UniProt P09923); assay: Transduction assay in HEK 293T cells expressing isoform 3; format: cell-based; details: for Luciferase Activity (RLU): Table 30, Isoform 3 transfected cells; for increase in transduction in cells expressing isoform 3: luciferase activity (RLU)
T1 construct: expressed in transfected cells; host or cells: HEK 293T
T1 sequence (P09923 20-503): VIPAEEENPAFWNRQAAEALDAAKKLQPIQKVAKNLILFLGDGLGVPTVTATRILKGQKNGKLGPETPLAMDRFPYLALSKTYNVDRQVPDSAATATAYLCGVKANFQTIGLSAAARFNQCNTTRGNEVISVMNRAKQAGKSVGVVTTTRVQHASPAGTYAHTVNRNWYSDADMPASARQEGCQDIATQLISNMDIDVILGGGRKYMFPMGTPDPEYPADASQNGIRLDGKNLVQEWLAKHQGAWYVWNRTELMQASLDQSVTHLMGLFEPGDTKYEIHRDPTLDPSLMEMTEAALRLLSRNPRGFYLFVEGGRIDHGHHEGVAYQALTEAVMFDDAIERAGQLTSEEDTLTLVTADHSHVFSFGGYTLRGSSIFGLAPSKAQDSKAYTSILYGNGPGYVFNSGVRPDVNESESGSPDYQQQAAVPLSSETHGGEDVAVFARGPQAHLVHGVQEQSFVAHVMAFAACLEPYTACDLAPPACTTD
Text: Three isoforms of ALPL exist, isoform 1 (Alkaline phosphatase, placental-like 2 (ALPPL2), NM_031313, which is incorporated by reference herein), isoform 2 (alkaline phosphatase, placental (ALPP), NM_001632, which is incorporated by reference herein), and isoform 3 (alkaline phosphatase, intestinal (ALPLI), NM_001631, which is incorporated by reference herein), that can also be expressed on cell surfaces via a GPI-anchor. Isoform 1 is 56.25% identical and 72.54% similar (gaps: 4.17%) to ALPL, isoform 2 is 54.96% identical and 71.37% similar (gaps: 2.29%) to ALPL, and isoform 3 is 55.98% identical and 72.11% similar (gaps: 3.04%) to ALPL. The transduction assay described above was repeated with the three isoforms. HEK 293T cells were transfected via calcium phosphate transfection with a plasmid expressing ALPL, isoform 1 of ALPL, isoform 2 of ALPL, isoform 3 of ALPL, an AAVR positive control, or a pCMV6 negative control. […] At 24-hours post-transduction, luciferase activity (RLU) was measured to quantify AAV cellular transduction.

[2] = biological target: T2, ALPL transcript variant 2 that lacks the ER signal (Homo sapiens, UniProt P05186); assay: Transduction assay in HEK 293T cells expressing ALPL with deletion of the ER localization signal; format: cell-based; details: luciferase, relative to pCMV6
T2 construct: expressed in transfected cells; host or cells: HEK 293T
T2 sequence (P05186 1-469 isoform P05186-3): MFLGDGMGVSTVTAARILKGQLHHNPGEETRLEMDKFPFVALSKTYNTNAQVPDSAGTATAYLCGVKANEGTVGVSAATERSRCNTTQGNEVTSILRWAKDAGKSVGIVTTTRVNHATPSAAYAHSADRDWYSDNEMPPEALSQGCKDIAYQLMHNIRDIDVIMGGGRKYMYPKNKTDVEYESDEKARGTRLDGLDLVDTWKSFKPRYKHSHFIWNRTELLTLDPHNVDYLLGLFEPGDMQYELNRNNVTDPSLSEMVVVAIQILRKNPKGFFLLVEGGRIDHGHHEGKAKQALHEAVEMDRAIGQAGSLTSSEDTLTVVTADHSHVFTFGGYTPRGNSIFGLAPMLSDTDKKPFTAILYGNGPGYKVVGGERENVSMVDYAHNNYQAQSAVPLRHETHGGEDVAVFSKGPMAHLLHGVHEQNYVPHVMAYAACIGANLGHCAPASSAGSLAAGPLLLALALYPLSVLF
Protocol: To determine if deletion of the endoplasmic reticulum (ER) localization signal of ALPL affected transduction of the TTM-001 and TTM-002 capsid variants, HEK 293T cells were transfected via calcium phosphate transfection with a plasmid expressing ALPL, ALP with a deletion of the ER localization signal (ALPL transcript variant 2 that lacks the ER signal (NM_001127501, which is incorporated by reference herein)), or a pCMV6 negative control. At 24 hours post-transfection, the HEK 293T cells expressing the ALPL receptor were transduced with an AAV particle comprising the TTM-001 capsid variant, the TTM-002 capsid variant, or an AAV9 capsid control, expressing a GFP payload. At 24-hours post-transduction, luciferase activity (RLU) was measured to quantify AAV cellular transduction. Data was normalized to fold change in luciferase activity (RLU) compared to the pCMV6 control.

[3] = tested on: brain; assay: NGS fold enrichment of AAV capsid variant library, second passage in NHPs; format: in vivo, NHP; details: second passage (P2) in NHPs
Text: A TRACER based method as described in WO2020072683, WO 2021/202651, and WO2021230987, the contents of which are herein incorporated by reference in their entirety, was used to generate the AAV capsid variants described herein. An orthogonal evolution approach was combined with a high throughput screening by NGS. Briefly, the library of AAV capsid variants was generated using a sliding window approach, where 6 amino acid sequences were inserted into 8 different positions across loop IV of AAV9, including immediately subsequent to positions 453, 454, 455, 456, 457, 458, 459, and 460, relative to a reference sequence numbered according to SEQ ID NO: 138. The initial library was passed twice through non-human primates (NHP, 2-4 years of age). After the second passage (e.g., 28 days post injection into two NHPs), RNA was extracted from six brain regions. […]
A second cross-species evolution screen was performed using an AAV capsid variant library with a modification in loop IV introduced as described above and passaging it once through NHPs (passage 1) and then subsequently injected it into two different strains of mice (passage 2), C57Bl/6 and BALB/c. The fold-enrichment for each variant in the brain of each mouse species was calculated by systematic NGS enrichment analysis following RNA recovery and RT-PCR amplification. […]

[4] = tested on: brain; assay: Second cross-species screen, synthetic library passage 3 in C57Bl/6 mice; format: in vivo; details: third passage (P3)
Protocol: There were approximately 500 variants in this synthetic library. This synthetic library was then injected back into both strains of mice (C57Bl/6 and BALB/c; passage 3). RNA was recovered from the mouse brains, RT-PCR amplification was performed, and fold-enrichment relative to wild-type AAV9 was calculated by NGS analysis, which is provided in Table 11.

B1: TTM-001: AAV9 capsid variant comprising SPHSKA (SEQ ID NO: 941) in loop IV (protein)
chain 1: MAADGYLPDWLEDNLSEGIREWWALKPGAPQPKANQQHQDNARGLVLPGYKYLGPGNGLDKGEPVNAADAAALEHDKAYDQQLKAGDNPYLKYNHADAEFQERLKEDTSFGGNLGRAVFQAKKRLLEPLGLVEEAAKTAPGKKRPVEQSPQEPDSSAGIGKSGAQPAKKRLNFGQTGDTESVPDPQPIGEPPAAPSGVGSLTMASGGGAPVADNNEGADGVGSSSGNWHCDSQWLGDRVITTSTRTWALPTYNNHLYKQISNSTSGGSSNDNAYFGYSTPWGYFDFNRFHCHFSPRDWQRLINNNWGFRPKRLNFKLFNIQVKEVTDNNGVKTIANNLTSTVQVFTDSDYQLPYVLGSAHEGCLPPFPADVFMIPQYGYLTLNDGSQAVGRSSFYCLEYFPSQMLRTGNNFQFSYEFENVPFHSSYAHSQSLDRLMNPLIDQYLYYLSKTINGSGSPHSKAQNQQTLKFSVAGPSNMAVQGRNYIPGPSYRQQRVSTTVTQNNNSEFAWPGASSWALNGRNSLMNPGPAMASHKEGEDRFFPLSGSLIFGKQGTGRDNVDADKVMITNEEEIKTTNPVATESYGQVATNHQSAQAQAQTGWVQNQGILPGMVWQDRDVYLQGPIWAKIPHTDGNFHPSPLMGGFGMKHPPPQILIKNTPVPADPPTAFNKDKLNSFITQYSTGQVSVEIEWELQKENSKRWNPEIQYTSNYYKSNNVEFAVNTEGVYSEPRPIGTRYLTRNL
chain 2: GSGSPHSKAQNQQT
[1]
  Luciferase Activity (RLU): 3,300 RLU
  increase in transduction in cells expressing isoform 3: did not occur
[2]
  increase in transduction in cells expressing ALPL with deleted ER localization signal: did not occur
[3]
  Fold enrichment over AAV9 in NHPP2: 56.33 fold
[4]
  Fold enrichment over AAV9 in C57Bl/6: 65.853 fold

B2: TTM-002: AAV9 capsid variant comprising HDSPHK (SEQ ID NO: 2) in loop IV (protein)
chain 1: B1 chain 1 with S454H, G455D, S459K, K460S, A461G
chain 2: GHDSPHKSGQNQQT
[1]
  Luciferase Activity (RLU): 2,074 RLU
  increase in transduction in cells expressing isoform 3: did not occur
[2]
  increase in transduction in cells expressing ALPL with deleted ER localization signal: did not occur
[3]
  Fold enrichment over AAV9 in NHPP2: 33.96 fold
[4]
  Fold enrichment over AAV9 in C57Bl/6: 51.125 fold

Reference: US20260250318A1, “COMPOSITIONS AND METHODS FOR CROSSING THE BLOOD BRAIN BARRIER” (VOYAGER THERAPEUTICS, INC., priority 2022, published 2026)
